Assays:
[1] = target: T1, rat mGlu2 SNAP-tagged receptor (rat, UniProt P31421 19-872, SNAP tag labelled with SNAP-Lumi4-Tb); assay: cell-based or functional assay
[2] = target: T1, rat mGlu2 SNAP-tagged receptor; assay: TR-FRET on HEK-293 cells with SNAP-tagged rat mGlu2, anti-6His-d2; inactive conformation
[3] = target: T1, rat mGlu2 SNAP-tagged receptor; assay: TR-FRET on HEK-293 cells with SNAP-tagged rat mGlu2, anti-6His-d2; active conformation

T1 sequence (P31421 19-872): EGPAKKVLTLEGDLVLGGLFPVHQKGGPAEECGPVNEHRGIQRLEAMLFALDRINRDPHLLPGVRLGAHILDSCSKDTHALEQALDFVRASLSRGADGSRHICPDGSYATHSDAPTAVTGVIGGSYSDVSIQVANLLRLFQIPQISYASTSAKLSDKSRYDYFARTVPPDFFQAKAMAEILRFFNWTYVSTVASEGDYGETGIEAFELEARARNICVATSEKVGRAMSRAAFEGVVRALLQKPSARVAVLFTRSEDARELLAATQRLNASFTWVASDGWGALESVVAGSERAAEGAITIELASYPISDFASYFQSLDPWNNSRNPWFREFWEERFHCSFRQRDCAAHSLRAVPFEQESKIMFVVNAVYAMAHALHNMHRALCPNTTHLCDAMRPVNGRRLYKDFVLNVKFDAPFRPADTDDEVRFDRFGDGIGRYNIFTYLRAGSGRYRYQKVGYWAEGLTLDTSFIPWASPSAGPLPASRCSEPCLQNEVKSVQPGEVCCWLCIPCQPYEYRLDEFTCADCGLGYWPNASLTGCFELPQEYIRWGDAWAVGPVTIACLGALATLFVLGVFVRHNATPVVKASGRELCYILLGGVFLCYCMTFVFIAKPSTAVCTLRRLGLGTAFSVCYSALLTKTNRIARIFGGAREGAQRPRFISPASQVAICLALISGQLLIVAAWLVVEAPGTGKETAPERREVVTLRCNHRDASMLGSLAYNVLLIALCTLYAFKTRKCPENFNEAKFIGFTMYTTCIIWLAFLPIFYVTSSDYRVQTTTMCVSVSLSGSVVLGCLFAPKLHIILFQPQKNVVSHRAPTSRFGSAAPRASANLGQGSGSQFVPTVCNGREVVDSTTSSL

| PAM effect G protein coupling, pEC50 [1] [pEC50] | pKd [2] [pKd] | pKd [3] [pKd] | Binder |
| --- | --- | --- | --- |
| 7.65 | 8.54 | 8.99 | IGF-1251 (IGF-1159 GS IGF-1168) (bispecific antibody) QVQLVQSGGGLVQAGGSLRLSCAASGRTFSSFAMAWFRQAPGKEREFVAAISWSGSTGHADSVKGRFTITRDNAKNTVFLQMNSLKPEDTAVYYCALGKGSSYYYSPSGYDYWGQGTQVTVSSGGGGSGGGGSGGGGSQVQLVQSGGGLVQAGGSLRLSCAASVRFFSINTMGWYRQAPGKQRELVADITSSGSTNYADSGKGRFTISRDNAKNTVYLQMNRLKPEDTAVYYCHADYKYTTHNTAWGQGTQVTVSS |
| 8.25 | 8.95 | 9.34 | IGF-1201 (IGF-1168 GS IGF-1159) (bispecific antibody) QVQLVQSGGGLVQAGGSLRLSCAASVRFFSINTMGWYRQAPGKQRELVADITSSGSTNYADSGKGRFTISRDNAKNTVYLQMNRLKPEDTAVYYCHADYKYTTHNTAWGQGTQVTVSSGGGGSGGGGSGGGGSQVQLVQSGGGLVQAGGSLRLSCAASGRTFSSFAMAWFRQAPGKEREFVAAISWSGSTGHADSVKGRFTITRDNAKNTVFLQMNSLKPEDTAVYYCALGKGSSYYYSPSGYDYWGQGTQVTVSS |
| 8.81 | 8.87 | 9.27 | biparatopic IGF1202 (construct IGF1168-linker sequence L1-IGF1159) (bispecific antibody) QVQLVQSGGGLVQAGGSLRLSCAASVRFFSINTMGWYRQAPGKQRELVADITSSGSTNYADSGKGRFTISRDNAKNTVYLQMNRLKPEDTAVYYCHADYKYTTHNTAWGQGTQVTVSSEPKIPQPQPKPQPQPQPQPQPKPQPKPEPQVQLVQSGGGLVQAGGSLRLSCAASGRTFSSFAMAWFRQAPGKEREFVAAISWSGSTGHADSVKGRFTITRDNAKNTVFLQMNSLKPEDTAVYYCALGKGSSYYYSPSGYDYWGQGTQVTVSSLEHHHHHH |
| 7.62 | – | 8.51 | IGF-1261 (IGF-1168 GS IGF-1168) (VHH, Used His-tagged in the assay) QVQLVQSGGGLVQAGGSLRLSCAASVRFFSINTMGWYRQAPGKQRELVADITSSGSTNYADSGKGRFTISRDNAKNTVYLQMNRLKPEDTAVYYCHADYKYTTHNTAWGQGTQVTVSSGGGGSGGGGSGGGGSQVQLVQSGGGLVQAGGSLRLSCAASVRFFSINTMGWYRQAPGKQRELVADITSSGSTNYADSGKGRFTISRDNAKNTVYLQMNRLKPEDTAVYYCHADYKYTTHNTAWGQGTQVTVSS |
| 7.94 | 8.49 | 8.77 | IGF-1252 (IGF-1159 HcAb IGF-1168) (bispecific antibody) QVQLVQSGGGLVQAGGSLRLSCAASGRTFSSFAMAWFRQAPGKEREFVAAISWSGSTGHADSVKGRFTITRDNAKNTVFLQMNSLKPEDTAVYYCALGKGSSYYYSPSGYDYWGQGTQVTVSSEPKIPQPQPKPQPQPQPQPQPKPQPKPEPQVQLVQSGGGLVQAGGSLRLSCAASVRFFSINTMGWYRQAPGKQRELVADITSSGSTNYADSGKGRFTISRDNAKNTVYLQMNRLKPEDTAVYYCHADYKYTTHNTAWGQGTQVTVSS |
| 7.2 | – | 8.23 | IGF-1262 (IGF-1168 HcAb IGF-1168) (VHH, Used His-tagged in the assay) QVQLVQSGGGLVQAGGSLRLSCAASVRFFSINTMGWYRQAPGKQRELVADITSSGSTNYADSGKGRFTISRDNAKNTVYLQMNRLKPEDTAVYYCHADYKYTTHNTAWGQGTQVTVSSEPKIPQPQPKPQPQPQPQPQPKPQPKPEPQVQLVQSGGGLVQAGGSLRLSCAASVRFFSINTMGWYRQAPGKQRELVADITSSGSTNYADSGKGRFTISRDNAKNTVYLQMNRLKPEDTAVYYCHADYKYTTHNTAWGQGTQVTVSS |
| 6.96 | – | 8.46 | IGF-1159 nanobody (VHH) VHH: QVQLVQSGGGLVQAGGSLRLSCAASGRTFSSFAMAWFRQAPGKEREFVAAISWSGSTGHADSVKGRFTITRDNAKNTVFLQMNSLKPEDTAVYYCALGKGSSYYYSPSGYDYWGQGTQVTVSS |

Reference: EP4299124A1 (UNIVERSITE DE MONTPELLIER, dated 2024)
